This note sets out measurements from paper PMC7817217 (Proceedings of the National Academy of Sciences of the …, 2020).

The target in data set [1] is SARS-CoV-2 spike protein receptor binding domain (RBD) (SARS-CoV-2, UniProt P0DTC2 319-541). Description: SPR. Conditions: both partners purified.
For data set [2] the target is unchanged. Briefly: SPR. To be noted: both partners purified. This is another data set of the same source.
The target is the same in data set [3]. Briefly: SPR. (In general: SPR reads the build-up and loss of mass on a sensor chip optically.)
The data set “crystal structure” deals with the molecule itself. Briefly: crystal structure.

Read-outs that look alike come from different tables or passages of the source.

B1: bat ACE2 from Rhinolophus macrotis, expressed in insect cells (bACE2-Rm-insect) (domain or fragment)
chain: STTEDEAKKFLDKFNSKAEDLSYESSLASWDYNTNISDENVQKMDEAGAKWSAFYEEQSKLAKNYPLEEIQNDTVKRQLQILQQSGSPVLSEDKSKRLNSILNAMSTIYSTGKVCKPNNPQECLLLEPGLDNIMGTSKDYNERLWAWEGWRAEVGKQLRPLYEEYVVLKNEMARGYHYEDYGDYWRRDYETEESSGPGYSRDQLMKDVDRIFTEIKPLYEHLHAYVRAKLMDTYPLHISPTGCLPAHLLGDMWGRFWTNLYPLTVPFGQKPNIDVTDAMLNQGWDANRIFKEAEKFFVSVSLPKMTEGFWNKSMLTEPGDGRKVVCHPTAWDLGKGDFRIKMCTKVTMEDFLTAHHEMGHIQYDMAYASQPYLLRNGANEGFHEAVGEVMSLSVATPKHLKTMGLLSPDFREDDETEINFLLKQALNIVGTLPFTYMLEKWRWMVFKGEIPKEEWMKKWWEMKREIVGVVEPVPHDETYCDPASLFHVANDYSFIRYYTRTIFEFQFHEALCRIAQHNGPLHKCDISNSTDAGKKLHQMLSVGKSQAWTKTLEDIVDSRNMDVGPLLRYFKPLYTWLQEQNRKSYVGWNTDWSPYAD
Consider B1, for which, in data set [1], the koff was 0.0692 s⁻¹.

B2: bat ACE2 from Rhinolophus macrotis fused to the mouse Fc tag (bACE2-Rm-mFc) (Fc fusion)
chain: B1 chain
The molecule B2 yielded a dissociation rate constant (koff) in data set [1] of 0.137 s⁻¹.

B3: bACE2-Rm (bat ACE2 from Rhinolophus macrotis) expressed in insect cells, residues 19 to 615 (domain or fragment)
chain: B1 chain
In data set [2], B3 showed a dissociation constant Kd of 1500 nM.

B4: bACE2-Rm residues 19 to 615 fused to the mouse Fc tag (bACE2-Rm-mFc) (Fc fusion)
chain: B1 chain
notes: also called bACE2-Rm-HEK293T cells; bACE2-Rm-WT
Molecule B4 came in with a Kd in data set [2] of 2780 nM.

B5: bACE2 from Rhinolophus affinis (bACE2-Ra) (receptor)
chain: STTEDRAKIFLDNFNHEAEDLSYQSSLASWEYNTNISDENVQKMDEAGAKWSAFYEEQSKLAKNYPLEEIQTVPVKLQLQILQQSGSPVLSEDKSKRLNSILNAMSTIYSTGKVCKPNNPQECFLLEPGLDNIMGTSKDYNERLWAWEGWRAEVGKQLRPLYEEYVVLKNEMARGYHYEDYGDYWRRDYETEESSGSGYSRDQLMKDVDRIFTEIKPLYEHLHAYVRTKLMDTYPFHISPTGCLPAHLLGDMWGRFWTNLYPLTVPFGQKPNIDVTDAMVNQGWDANRIFKEAEKFFVSVGLPNMTEGFWNNSMLTEPGDGRKVVCHPTAWDLGKGDFRIKMCTKVTMEDFLTAHHEMGHIQYDMAYATQPYLLRNGANEGFHEAVGEVMSLSVATPKHLKTMGLLSPDFLEDNETEINFLLKQALNIVGTLPFTYMLEKWRWMVFRGEIPKEEWMKKWWEMKRDLVGVVEPVPHDETYCDPASLFHVANDYSFIRYYTRTIFEFQFHEALCRIAQHDGPLHKCDISNSTDAGKKLHQMLSVGKSQPWTVTLKDIVDSRNMDVGPLLRYFEPLYTWLQEQNRKSHVGWNTDWSPYSD
Turning to B5, binding in data set [3] was characterised by a dissociation constant (Kd) of 440 nM. That is a sub-micromolar value.

B6: bat ACE2 from Rhinolophus macrotis, expressed in E. coli and refolded (bACE2-Rm-E. coli) (domain or fragment)
chain: STTEDEAKKFLDKFNSKAEDLSYESSLASWDYNTNISDENVQKMDEAGAKWSAFYEEQSKLAKNYPLEEIQNDTVKRQLQILQQSGSPVLSEDKSKRLNSILNAMSTIYSTGKVCKPNNPQECLLLEPGLDNIMGTSKDYNERLWAWEGWRAEVGKQLRPLYEEYVVLKNEMARGYHYEDYGDYWRRDYETEESSGPGYSRDQLMKDVDRIFTEIKPLYEHLHAYVRAKLMDTYPLHISPTGCLPAHLLGDMWGRFWTNLYPLTVPFGQKPNIDVTDAMLNQGWDANRIFKEAEKFFVSVSLPKMTEGFWNKSMLTEPGDGRKVVCHPTAWDLGKGDFRIKMCTKVTMEDFLTAHHEMGHIQYDMAYASQPYLLRNGANEGFHEAVGEVMSLSVATPKHLKTMGLLSPDFREDDETEINFLLKQALNIVGTLPFTYMLEKWRWMVFKGEIPKEEWMKKWWEMKREIVGVVEPVPHDETYCDPASLFHVANDYSFIRYYTRTIFEFQFHEALCRIAQHNGPLHKCDISNSTDAGKKLHQMLSVGKSQAWTKTLEDIVDSRNMDVGPLLRYFKPLYTWLQEQNRKSYVGWNTDWSPYADQSIKVWISLKSALGEKAYEWNDNEMYLFRSSVAYAMREYFLKTKNQTILFGDENVWVSNLKPRISFNFHVTSPGNVSDIIPRPEVEGAIRMSRSRINDAFRLDDNSLEFLGIQPTLGPPYQPPVTI
In data set [1], B6 had a koff of 0.132 s⁻¹ and a kon of 102000 M⁻¹ s⁻¹.

B7: bACE2-Rm (bat ACE2 from Rhinolophus macrotis) expressed in E. coli, residues 19 to 741 (domain or fragment)
chain: B6 chain
notes: also called bACE2-Rm-E. coli; bat ACE2-E. coli
The molecule B7 yielded a Kd in data set [2] of 1300 nM. Further, the binding result in “crystal structure” is listed as “binds”.

By koff is commonly meant the rate constant with which the complex falls apart. The low end stands for slow dissociation, the high end for fast dissociation. Usually Kd stands for a measure of binding affinity in units of concentration. The kon is a measure of how fast the partners come together. The low end stands for slow association, the high end for fast association.
